# Reference: IntAct's records for PubMed 17555716
# B1: 26S proteasome regulatory subunit 6B homolog (Saccharomyces cerevisiae), P33298 (parent)
# chain: MEELGIVTPVEKAVEEKPAVKSYASLLAQLNGTVNNNSALSNVNSDIYFKLKKLEKEYELLTLQEDYIKDEQRHLKRELKRAQEEVKRIQSVPLVIGQFLEPIDQNTGIVSSTTGMSYVVRILSTLDRELLKPSMSVALHRHSNALVDILPPDSDSSISVMGENEKPDVTYADVGGLDMQKQEIREAVELPLVQADLYEQIGIDPPRGVLLYGPPGTGKTMLVKAVANSTKAAFIRVNGSEFVHKYLGEGPRMVRDVFRLARENAPSIIFIDEVDSIATKRFDAQTGSDREVQRILIELLTQMDGFDQSTNVKVIMATNRADTLDPALLRPGRLDRKIEFPSLRDRRERRLIFGTIASKMSLAPEADLDSLIIRNDSLSGAVIAAIMQEAGLRAVRKNRYVILQSDLEEAYATQVKTDNTVDKFDFYK
# partner: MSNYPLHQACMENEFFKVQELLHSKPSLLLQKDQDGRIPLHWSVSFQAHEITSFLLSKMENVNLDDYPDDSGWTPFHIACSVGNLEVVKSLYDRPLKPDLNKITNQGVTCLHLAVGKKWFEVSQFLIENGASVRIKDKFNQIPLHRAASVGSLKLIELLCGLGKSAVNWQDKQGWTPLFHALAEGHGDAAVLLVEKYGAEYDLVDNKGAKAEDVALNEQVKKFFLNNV
# Variants of: B1
# Conditions: with psd10_yeast NAS6, P50086
row,effect of a mutation on the interaction,Variant
1,disrupting interaction strength,MEELGIVTPVEKAVEEKPAVKSYASLLAQLNGTVNNNSALSNVNSDIYFKLKKLEKEYELLTLQEDYIKDEQRHLKRELKRAQEEVKRIQSVPLVIGQFLEPIDQNTGIVSSTTGMSYVVRILSTLDRELLKPSMSVALHRHSNALVDILPPDSDSSISVMGENEKPDVTYADVGGLDMQKQEIREAVELPLVQADLYEQIGIDPPRGVLLYGPPGTGKTMLVKAVANSTKAAFIRVNGSEFVHKYLGEGPRMVRDVFRLARENAPSIIFIDEVDSIATKRFDAQTGSDREVQRILIELLTQMDGFDQSTNVKVIMATNRADTLDPALLRPGRLDRKIEFPSLRDRRERRLIFGTIASKMSLAPAAALDSLIIRNDSLSGAVIAAIMQEAGLRAVRKNRYVILQSDLEEAYATQVKTDNTVDKFDFYK [E365A;D367A]
2,disrupting interaction strength,MEELGIVTPVEKAVEEKPAVKSYASLLAQLNGTVNNNSALSNVNSDIYFKLKKLEKEYELLTLQEDYIKDEQRHLKRELKRAQEEVKRIQSVPLVIGQFLEPIDQNTGIVSSTTGMSYVVRILSTLDRELLKPSMSVALHRHSNALVDILPPDSDSSISVMGENEKPDVTYADVGGLDMQKQEIREAVELPLVQADLYEQIGIDPPRGVLLYGPPGTGKTMLVKAVANSTKAAFIRVNGSEFVHKYLGEGPRMVRDVFRLARENAPSIIFIDEVDSIATKRFDAQTGSDREVQRILIELLTQMDGFDQSTNVKVIMATNRADTLDPALLRPGRLDRKIEFPSLRDRRERRLIFGTIASKMSLAPEADLDSLIIRNDSLSGAVIAAIMQEAGLRAVRANAYVILQSDLEEAYATQVKTDNTVDKFDFYK [K397A;R399A]
